Publication PMC10261145, “Ceramide sensing by human SPT-ORMDL complex for establishing sphingolipid homeostasis” (Nature Communications, 2023)

T1: serine palmitoyltransferase (SPT) complex (SPTLC1, SPTLC2, SPTssa) (human, UniProt O15269 1-473; O15270 1-562; Q969W0 1-71)
T1 construct: SPTLC1, human, codon-optimized full-length cDNA; SPTLC2, human, codon-optimized full-length cDNA; SPTssa, human, codon-optimized full-length cDNA; Also purified alone, without ORMDLs; also called WT SPT complex; source: HEK293F, transiently co-transfected, purified (anti-Flag resin, SEC, GDN); copies: + +
T1 sequence (looked up) 1: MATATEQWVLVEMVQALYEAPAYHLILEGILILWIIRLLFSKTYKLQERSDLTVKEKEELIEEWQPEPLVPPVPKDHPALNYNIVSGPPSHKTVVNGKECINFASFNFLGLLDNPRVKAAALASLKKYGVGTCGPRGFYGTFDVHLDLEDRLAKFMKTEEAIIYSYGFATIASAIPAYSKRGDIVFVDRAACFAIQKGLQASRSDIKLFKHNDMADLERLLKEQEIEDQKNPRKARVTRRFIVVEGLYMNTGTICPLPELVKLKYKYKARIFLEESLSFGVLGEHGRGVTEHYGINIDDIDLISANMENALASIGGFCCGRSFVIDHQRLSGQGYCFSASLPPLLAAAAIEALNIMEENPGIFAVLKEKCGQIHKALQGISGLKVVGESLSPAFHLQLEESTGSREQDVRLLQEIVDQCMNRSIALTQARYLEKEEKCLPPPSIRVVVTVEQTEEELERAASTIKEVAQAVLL
T1 sequence (looked up) 2: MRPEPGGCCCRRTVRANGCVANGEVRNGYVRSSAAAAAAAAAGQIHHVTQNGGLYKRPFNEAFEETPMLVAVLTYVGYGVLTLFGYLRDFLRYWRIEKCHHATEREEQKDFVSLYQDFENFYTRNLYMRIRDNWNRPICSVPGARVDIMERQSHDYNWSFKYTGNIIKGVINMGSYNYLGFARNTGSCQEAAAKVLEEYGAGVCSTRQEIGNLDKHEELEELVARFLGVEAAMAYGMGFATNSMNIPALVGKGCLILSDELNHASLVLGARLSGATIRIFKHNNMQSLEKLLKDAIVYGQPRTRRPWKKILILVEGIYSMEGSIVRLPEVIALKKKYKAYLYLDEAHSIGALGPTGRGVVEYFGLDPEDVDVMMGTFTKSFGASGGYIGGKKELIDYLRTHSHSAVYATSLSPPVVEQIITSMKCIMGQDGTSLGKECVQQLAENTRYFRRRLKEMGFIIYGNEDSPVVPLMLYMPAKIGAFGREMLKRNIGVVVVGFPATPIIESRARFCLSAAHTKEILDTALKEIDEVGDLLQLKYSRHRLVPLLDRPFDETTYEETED
T1 sequence (looked up) 3: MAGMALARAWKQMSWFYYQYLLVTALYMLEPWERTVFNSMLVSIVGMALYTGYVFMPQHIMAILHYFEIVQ


Experiments:
[1] = biological target: T1, serine palmitoyltransferase (SPT) …; test: cryo-EM structure; single-particle cryo-EM of co-expressed and co-purified SPT-ORMDL3 complexes at ~18 mg/ml in 25 mM HEPES pH 7.5, 150 mM NaCl, 0.01% GDN; apo, or WT preincubated with 1 mM C6-ceramide on ice for 1 hr; details: both partners purified
[2] = biological target: the molecule itself; test: as above

| binding result [1] | Binder | binding result [2] | other results |
| --- | --- | --- | --- |
| binds | ORMDL3-N13A (natural protein, human, UniProt Q8N138 1-153, looked up, ORMDL3, human, full-length cDNA with N13A; also called ORMDL3-N13A mutant; source: HEK293F, transiently co-transfected with the SPT subunits, purified as a complex (anti-Flag resin, SEC, GDN)) MNVGTAHSEVNPATRVMNSRGIWLSYVLAIGLLHIVLLSIPFVSVPVVWTLTNLIHNMGMYIFLHTVKGTPFETPDQGKARLLTHWEQMDYGVQFTASRKFLTITPIVLYFLTSFYTKYDQIHFVLNTVSLMSVLIPKLPQLHGVRIFGINKY | – | – |
| – | SPT-ORMDL3 complex (SPTLC1, SPTLC2, SPTssa, ORMDL3-FL) (complex, human, SPTLC1, human, codon-optimized full-length cDNA; SPTLC2, human, codon-optimized full-length cDNA; SPTssa, human, codon-optimized full-length cDNA; ORMDL3, human, codon-optimized full-length cDNA; One protomer; two protomers form the dimeric complex seen by cryo-EM; also called WT SPT-ORMDL3 complex; SPT-ORMDL3 protomer; source: HEK293F, transiently co-transfected, purified (anti-Flag resin, SEC, …)) chain 1: MATATEQWVLVEMVQALYEAPAYHLILEGILILWIIRLLFSKTYKLQERSDLTVKEKEELIEEWQPEPLVPPVPKDHPALNYNIVSGPPSHKTVVNGKECINFASFNFLGLLDNPRVKAAALASLKKYGVGTCGPRGFYGTFDVHLDLEDRLAKFMKTEEAIIYSYGFATIASAIPAYSKRGDIVFVDRAACFAIQKGLQASRSDIKLFKHNDMADLERLLKEQEIEDQKNPRKARVTRRFIVVEGLYMNTGTICPLPELVKLKYKYKARIFLEESLSFGVLGEHGRGVTEHYGINIDDIDLISANMENALASIGGFCCGRSFVIDHQRLSGQGYCFSASLPPLLAAAAIEALNIMEENPGIFAVLKEKCGQIHKALQGISGLKVVGESLSPAFHLQLEESTGSREQDVRLLQEIVDQCMNRSIALTQARYLEKEEKCLPPPSIRVVVTVEQTEEELERAASTIKEVAQAVLL chain 2: MRPEPGGCCCRRTVRANGCVANGEVRNGYVRSSAAAAAAAAAGQIHHVTQNGGLYKRPFNEAFEETPMLVAVLTYVGYGVLTLFGYLRDFLRYWRIEKCHHATEREEQKDFVSLYQDFENFYTRNLYMRIRDNWNRPICSVPGARVDIMERQSHDYNWSFKYTGNIIKGVINMGSYNYLGFARNTGSCQEAAAKVLEEYGAGVCSTRQEIGNLDKHEELEELVARFLGVEAAMAYGMGFATNSMNIPALVGKGCLILSDELNHASLVLGARLSGATIRIFKHNNMQSLEKLLKDAIVYGQPRTRRPWKKILILVEGIYSMEGSIVRLPEVIALKKKYKAYLYLDEAHSIGALGPTGRGVVEYFGLDPEDVDVMMGTFTKSFGASGGYIGGKKELIDYLRTHSHSAVYATSLSPPVVEQIITSMKCIMGQDGTSLGKECVQQLAENTRYFRRRLKEMGFIIYGNEDSPVVPLMLYMPAKIGAFGREMLKRNIGVVVVGFPATPIIESRARFCLSAAHTKEILDTALKEIDEVGDLLQLKYSRHRLVPLLDRPFDETTYEETED chain 3: MAGMALARAWKQMSWFYYQYLLVTALYMLEPWERTVFNSMLVSIVGMALYTGYVFMPQHIMAILHYFEIVQ chain 4: MNVGTAHSEVNPNTRVMNSRGIWLSYVLAIGLLHIVLLSIPFVSVPVVWTLTNLIHNMGMYIFLHTVKGTPFETPDQGKARLLTHWEQMDYGVQFTASRKFLTITPIVLYFLTSFYTKYDQIHFVLNTVSLMSVLIPKLPQLHGVRIFGINKY | – | stoichiometry N [2]: 2 |
| – | SPT-ORMDL3 (ORMDL3-N13A) complex (complex, human, SPTLC1, human, codon-optimized full-length cDNA; SPTLC2, human, codon-optimized full-length cDNA; SPTssa, human, codon-optimized full-length cDNA; ORMDL3, human, full-length cDNA with N13A; One protomer; also called ORMDL3-N13A variant; ORMDL3-N13A protomer; source: HEK293F, transiently co-transfected, purified (anti-Flag resin, SEC, GDN); copies: + + +) chain 1: MATATEQWVLVEMVQALYEAPAYHLILEGILILWIIRLLFSKTYKLQERSDLTVKEKEELIEEWQPEPLVPPVPKDHPALNYNIVSGPPSHKTVVNGKECINFASFNFLGLLDNPRVKAAALASLKKYGVGTCGPRGFYGTFDVHLDLEDRLAKFMKTEEAIIYSYGFATIASAIPAYSKRGDIVFVDRAACFAIQKGLQASRSDIKLFKHNDMADLERLLKEQEIEDQKNPRKARVTRRFIVVEGLYMNTGTICPLPELVKLKYKYKARIFLEESLSFGVLGEHGRGVTEHYGINIDDIDLISANMENALASIGGFCCGRSFVIDHQRLSGQGYCFSASLPPLLAAAAIEALNIMEENPGIFAVLKEKCGQIHKALQGISGLKVVGESLSPAFHLQLEESTGSREQDVRLLQEIVDQCMNRSIALTQARYLEKEEKCLPPPSIRVVVTVEQTEEELERAASTIKEVAQAVLL chain 2: MRPEPGGCCCRRTVRANGCVANGEVRNGYVRSSAAAAAAAAAGQIHHVTQNGGLYKRPFNEAFEETPMLVAVLTYVGYGVLTLFGYLRDFLRYWRIEKCHHATEREEQKDFVSLYQDFENFYTRNLYMRIRDNWNRPICSVPGARVDIMERQSHDYNWSFKYTGNIIKGVINMGSYNYLGFARNTGSCQEAAAKVLEEYGAGVCSTRQEIGNLDKHEELEELVARFLGVEAAMAYGMGFATNSMNIPALVGKGCLILSDELNHASLVLGARLSGATIRIFKHNNMQSLEKLLKDAIVYGQPRTRRPWKKILILVEGIYSMEGSIVRLPEVIALKKKYKAYLYLDEAHSIGALGPTGRGVVEYFGLDPEDVDVMMGTFTKSFGASGGYIGGKKELIDYLRTHSHSAVYATSLSPPVVEQIITSMKCIMGQDGTSLGKECVQQLAENTRYFRRRLKEMGFIIYGNEDSPVVPLMLYMPAKIGAFGREMLKRNIGVVVVGFPATPIIESRARFCLSAAHTKEILDTALKEIDEVGDLLQLKYSRHRLVPLLDRPFDETTYEETED chain 3: MAGMALARAWKQMSWFYYQYLLVTALYMLEPWERTVFNSMLVSIVGMALYTGYVFMPQHIMAILHYFEIVQ chain 4: MNVGTAHSEVNPATRVMNSRGIWLSYVLAIGLLHIVLLSIPFVSVPVVWTLTNLIHNMGMYIFLHTVKGTPFETPDQGKARLLTHWEQMDYGVQFTASRKFLTITPIVLYFLTSFYTKYDQIHFVLNTVSLMSVLIPKLPQLHGVRIFGINKY | binds | – |
| binds | ORMDL3-ΔN2 (deletion of the Asn2 residue) (natural protein, human, UniProt Q8N138 1-153, looked up, ORMDL3, human, full-length cDNA with Asn2 deleted; also called ORMDL3-ΔN2 mutant; source: HEK293F, transiently co-transfected with the SPT subunits, purified as a complex (anti-Flag resin, SEC, GDN)) MVGTAHSEVNPNTRVMNSRGIWLSYVLAIGLLHIVLLSIPFVSVPVVWTLTNLIHNMGMYIFLHTVKGTPFETPDQGKARLLTHWEQMDYGVQFTASRKFLTITPIVLYFLTSFYTKYDQIHFVLNTVSLMSVLIPKLPQLHGVRIFGINKY | – | – |
| – | SPT-ORMDL3 (ORMDL3-ΔN2) complex (complex, human, SPTLC1, human, codon-optimized full-length cDNA; SPTLC2, human, codon-optimized full-length cDNA; SPTssa, human, codon-optimized full-length cDNA; ORMDL3, human, full-length cDNA with Asn2 deleted; One protomer; also called ORMDL3-ΔN2 variant; ORMDL3-ΔN2 protomer; source: HEK293F, transiently co-transfected, purified (anti-Flag resin, SEC, GDN); copies: + + +) chain 1: MATATEQWVLVEMVQALYEAPAYHLILEGILILWIIRLLFSKTYKLQERSDLTVKEKEELIEEWQPEPLVPPVPKDHPALNYNIVSGPPSHKTVVNGKECINFASFNFLGLLDNPRVKAAALASLKKYGVGTCGPRGFYGTFDVHLDLEDRLAKFMKTEEAIIYSYGFATIASAIPAYSKRGDIVFVDRAACFAIQKGLQASRSDIKLFKHNDMADLERLLKEQEIEDQKNPRKARVTRRFIVVEGLYMNTGTICPLPELVKLKYKYKARIFLEESLSFGVLGEHGRGVTEHYGINIDDIDLISANMENALASIGGFCCGRSFVIDHQRLSGQGYCFSASLPPLLAAAAIEALNIMEENPGIFAVLKEKCGQIHKALQGISGLKVVGESLSPAFHLQLEESTGSREQDVRLLQEIVDQCMNRSIALTQARYLEKEEKCLPPPSIRVVVTVEQTEEELERAASTIKEVAQAVLL chain 2: MRPEPGGCCCRRTVRANGCVANGEVRNGYVRSSAAAAAAAAAGQIHHVTQNGGLYKRPFNEAFEETPMLVAVLTYVGYGVLTLFGYLRDFLRYWRIEKCHHATEREEQKDFVSLYQDFENFYTRNLYMRIRDNWNRPICSVPGARVDIMERQSHDYNWSFKYTGNIIKGVINMGSYNYLGFARNTGSCQEAAAKVLEEYGAGVCSTRQEIGNLDKHEELEELVARFLGVEAAMAYGMGFATNSMNIPALVGKGCLILSDELNHASLVLGARLSGATIRIFKHNNMQSLEKLLKDAIVYGQPRTRRPWKKILILVEGIYSMEGSIVRLPEVIALKKKYKAYLYLDEAHSIGALGPTGRGVVEYFGLDPEDVDVMMGTFTKSFGASGGYIGGKKELIDYLRTHSHSAVYATSLSPPVVEQIITSMKCIMGQDGTSLGKECVQQLAENTRYFRRRLKEMGFIIYGNEDSPVVPLMLYMPAKIGAFGREMLKRNIGVVVVGFPATPIIESRARFCLSAAHTKEILDTALKEIDEVGDLLQLKYSRHRLVPLLDRPFDETTYEETED chain 3: MAGMALARAWKQMSWFYYQYLLVTALYMLEPWERTVFNSMLVSIVGMALYTGYVFMPQHIMAILHYFEIVQ chain 4: MVGTAHSEVNPNTRVMNSRGIWLSYVLAIGLLHIVLLSIPFVSVPVVWTLTNLIHNMGMYIFLHTVKGTPFETPDQGKARLLTHWEQMDYGVQFTASRKFLTITPIVLYFLTSFYTKYDQIHFVLNTVSLMSVLIPKLPQLHGVRIFGINKY | binds | – |
